Assay results as given in US20220177587A1, “METHODS AND USES OF VARIANT CD80 FUSION PROTEINS AND RELATED CONSTRUCTS” (Alpine Immune Sciences, Inc., priority 2018, published 2022).
Changes are numbered by the printed parent chain. Names and notes keep the numbering of the source. Values belong to the molecule of their own block, whether it stands above or below them.

What was measured:
CD28 [1] = target: T1, CD28 (Homo sapiens, UniProt P10747); experiment: Flow binding to Jurkat/IL2 reporter cells (CD28); parameters: host or cells: Jurkat cells expressing an IL-2-luciferase reporter; settings: 33.3 nM
Protocol: (§1) Binding of selected immunomodulatory fusion proteins to cognate binding partners was assessed. […] Cells were sorted in a Bio-Rad S3 Cell Sorter (Bio-Rad Corp., USA) to >98% purity. Jurkat/IL2 reporter cells, which endogenously express CD28, were used to detect binding to CD28.
(§2) For staining and analysis by flow cytometry, 100,000 cells of appropriate transfected cells were plated in 96-well round bottom plates. Cells were spun down and resuspended in staining buffer (phosphate buffered saline (PBS), 1% bovine serum albumin (BSA), and 0.1% sodium azide) for 20 minutes to block non-specific binding. […] Primary staining was performed on ice for 45 minutes, before washing cells in staining buffer twice. Phycoerythrin (PE)-conjugated anti-human Fc (Jackson ImmunoResearch, USA) was diluted 1:150, added to cells and incubated another 30 minutes on ice. Cells were then washed twice with 150 μL/well stain buffer, fixed in 2% formaldehyde/PBS, and analyzed on Intellicyt flow cytometer (Intellicyt Corp., USA). PE Mean Fluorescence Intensity (MFI) was calculated for each cell type with FlowJo Version 10 software (FlowJo LLC, USA).
(§3) Binding assays were carried out to assess the specificity and affinity of multivalent proteins to cell-expressed CTLA-4, CD28, and PD-L1 counter structures.
(§4) The EC50 for binding also was determined.

huPD-L1 = huPD-L1 (Homo sapiens, UniProt Q9NZQ7); experiment: Flow binding to CHO cells stably expressing PD-L1; parameters: huCTLA4 and huPD-L1, full-length mammalian surface expression constructs were generated; expressed in transfected cells; host or cells: CHO cells, lentiviral transduction, sorted to >98% purity; settings: CHO cells stably expressing PD-L1
huPD-L1, sequence (Q9NZQ7 19-290): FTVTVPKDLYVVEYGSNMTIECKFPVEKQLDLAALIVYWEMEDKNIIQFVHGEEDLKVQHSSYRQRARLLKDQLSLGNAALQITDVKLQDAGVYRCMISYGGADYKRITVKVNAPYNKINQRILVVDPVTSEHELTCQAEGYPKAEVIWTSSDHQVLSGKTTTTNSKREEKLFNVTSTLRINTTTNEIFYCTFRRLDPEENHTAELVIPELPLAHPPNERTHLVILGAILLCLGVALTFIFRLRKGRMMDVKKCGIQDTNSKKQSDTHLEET
Protocol: as §1, §2, §3, §4

huCTLA4 = huCTLA4 (Homo sapiens, UniProt P16410); experiment: Flow binding to CHO cells stably expressing CTLA4; parameters: huCTLA4 and huPD-L1, full-length mammalian surface expression constructs were generated; expressed in transfected cells; host or cells: CHO cells, lentiviral transduction, sorted to >98% purity; settings: CHO cells stably expressing CTLA4
huCTLA4, sequence (P16410 36-223): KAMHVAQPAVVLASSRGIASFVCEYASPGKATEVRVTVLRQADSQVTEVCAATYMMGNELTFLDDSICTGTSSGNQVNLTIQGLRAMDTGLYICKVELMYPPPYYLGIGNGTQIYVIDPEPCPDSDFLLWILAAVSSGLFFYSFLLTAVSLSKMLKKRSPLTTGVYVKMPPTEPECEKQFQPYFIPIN
Protocol: as §1, §2, §3, §4

CD28 [2] = target: T1, CD28; experiment: Jurkat/IL2 + CHO/OKT3 +/- PD-L1 reporter assay: PD-L1-dependent CD28 costimulation; format: cell-based; parameters: host or cells: Jurkat cells expressing an IL-2-luciferase reporter; settings: Jurkat/IL2 + CHO/OKT3/PD-L1
Protocol: Jurkat cells were then plated at 50 μL/well for a total of 100,000 cells per well.
To each well, 25 μL of test protein was added to the Jurkat cells. […] The Jurkat cells with test or control proteins were incubated for 15 minutes at room temperature. CHO-derived artificial antigen presenting cells (aAPC) displaying transduced cell surface anti-CD3 single chain Fv (OKT3) (i.e., no PD-L1), or OKT3 and PD-L1 (i.e., +PD-L1), were brought to 0.8×10^6 cells/mL, and 25 μL of cells were added to each well, bringing the final volume of each well to 100 μL. […] Jurkat cells and CHO cells were incubated for 5 hours at 37 degrees Celsius in a humidified 5% CO2 incubation chamber. Plates were then removed from the incubator and acclimated to room temperature for 15 minutes. 100 μL of a cell lysis and luciferase substrate solution (BioGlo luciferase reagent, Promega) were added to each well and the plates were incubated on an orbital shaker for 10 minutes. Luminescence was measured with a 1 second per well integration time using a BioTek Cytation luminometer, and a relative luminescence value (RLU) was determined for each test sample.

[3] = Table E23, CD80 IgV-Fc (inert) at 33.3 nM

CD28 MFI at 33.3 nM (CD28 [1]; Table E4, Jurkat cells (CD28)): 692
B1: E35D/M47V/N48I/L85Q (protein)
chain: VIHVTKEVKEVATLSCGHNVSVEELAQTRIYWQKDKKMVLTMMSGDVTIWPEYKNRTIFDITNNLSIVILALRPSDEGTYECVVQKYEKDAFKREHLAEVTLSVKAD

PD-L1 MFI at 33.3 nM (huPD-L1; Table E11, 33.3 nM): 19969 | CD28 MFI at 33.3 nM (CD28 [1]; Table E11, Jurkats (CD28)): 15.6
B2: T13R/E35D/M47LN68M (protein)
chain: B1 chain with T13R, V47L, T48N, V68M, Q85L

PD-L1 MFI at 33.3 nM (huPD-L1; Table E19, 33.3 nM): 17425 | CD28 MFI at 33.3 nM (CD28 [1]; Table E19, Jurkats (CD28)): 1534
B3: E35D/N48K/V68M/K89N (protein)
chain: B1 chain with V47M, T48K, V68M, Q85L, K89N

CTLA4 MFI at 33.3 nM (huCTLA4; Table E20, 33.3 nM): 8666 | PD-L1 MFI at 33.3 nM (huPD-L1; Table E20, 33.3 nM): 3195 | Relative Luciferase Units (RLU), CD80 Conc 5.0 nM (CD28 [2]; Table E22, CD80 Conc 5.0 nM): 590 RLU
B4: A26E/V68M/A71G/D90G (protein)
chain: B1 chain with A26E, D35E, V47M, T48N, V68M, A71G, Q85L, D90G

CTLA4 MFI at 33.3 nM (huCTLA4; Table E20, 33.3 nM): 24656 | PD-L1 MFI at 33.3 nM (huPD-L1; Table E20, 33.3 nM): 27872 | Relative Luciferase Units (RLU), CD80 Conc 5.0 nM (CD28 [2]; Table E22, CD80 Conc 5.0 nM): 745 RLU
B5: E35D/M47L/V68M/A71G (protein)
chain: B1 chain with V47L, T48N, V68M, A71G, Q85L

CD28 MFI at 33.3 nM (CD28 [1]; Table E11, Jurkats (CD28)): 4038 | CD28 MFI at 33.3 nM (CD28 [1]; Table E16, consensus variants, Jurkats (CD28)): 1429
B6: H18Y/E35D/M47I/V68M/Y87N (protein, UniProt P33681 35-288, looked up, variant H18Y E35D M47I V68M Y87N)
T-lymphocyte activation …: VIHVTKEVKEVATLSCGYNVSVEELAQTRIYWQKDKKMVLTMMSGDINIWPEYKNRTIFDITNNLSIMILALRPSDEGTYECVVLKNEKDAFKREHLAEVTLSVKADFPTPSISDFEIPTSNIRRIICSTSGGFPEPHLSWLENGEELNAINTTVSQDPETELYAVSSKLDFNMTTNHSFMCLIKYGHLRVNQTFNWNTTKQEHFPDNLLPSWAITLISVNGIFVICCLTYCFAPRCRERRRNERLRRESVRPV
modifications: Fc fusion

CTLA4 MFI at 33.3 nM (huCTLA4; [3]): 13669 | PD-L1 MFI at 33.3 nM (huPD-L1; [3]): 55417 | Relative Luciferase Units (RLU), CD80 Conc 5.0 nM (CD28 [2]; Table E24, 5.0 nM): 881 RLU
B7: H18V/A26P/E35D/M47V/V68L/A71G (protein, UniProt P33681 35-288, looked up, variant H18V A26P E35D M47V V68L A71G)
T-lymphocyte activation …: B6 T-lymphocyte activation … with Y18V, A26P, I47V, M68L, A71G, N87Y

CTLA4 MFI at 33.3 nM (huCTLA4; [3]): 17327 | PD-L1 MFI at 33.3 nM (huPD-L1; [3]): 29306 | Relative Luciferase Units (RLU), CD80 Conc 5.0 nM (CD28 [2]; Table E24, 5.0 nM): 972 RLU
B8: H18R/A26P/E35D/D46N/M47V/V68M/A71G/D90P (protein, UniProt P33681 35-288, looked up, variant H18R A26P E35D D46N M47V V68M A71G D90P)
T-lymphocyte activation …: B6 T-lymphocyte activation … with Y18R, A26P, D46N, I47V, A71G, N87Y, D90P
modifications: Fc fusion

Relative Luciferase Units (RLU), CD80 Conc 5.0 nM (CD28 [2]; Table E26, linker variants, 5.0 nM): 1400 RLU | CD28 MFI at 33.3 nM (CD28 [1]; Table E25, linker variants, Jurkats (CD28)): 2109
B9: E35D/M47V/N48K/V68M/K89N GS(G4S)3 (protein, UniProt P33681 35-288, looked up, variant E35D M47V N48K V68M K89N)
T-lymphocyte activation …: B6 T-lymphocyte activation … with Y18H, I47V, N48K, N87Y, K89N
modifications: GS(G4S)3 linker
